In the Human Domainome abundance scans (Beltran et al. 2025):
± gives the uncertainty stated by the source.

B1: POU domain, class 3, transcription factor 2, residues 356 to 411; numbered along this chain, P20265 (parent)
chain: KKRTSIEVSVKGALESHFLKCPKPSAQEITSLADSLQLEKEVVRVWFCNRRQKEKR

Variants of: B1
Assay: abundance fitness (aPCA) (normalised: wild type 0, dead -1); higher = more abundant; growth selection in yeast, the domain comes from the species named
Settings: Homo sapiens

| Variant | abundance fitness |
| --- | --- |
| KKRTSIEVSVKGALESHFLKCPKPSAQEITSLADSLQLEKEVVRVWFINRRQKEKR | -0.004 ± 0.18 |
| KKRTSIEVSVKGALESHFLKCPKPSAQEITSLADSLQLEKEVVRVWFPNRRQKEKR | -0.948 ± 0.23 |
| KKRTSIEVSVKGALESHFLKCPKPSAQEITSLADSLQLEKEVVRVWFDNRRQKEKR | -0.053 ± 0.14 |
| KKRTSIEVSVKGALESHFLKCPKPSAQEITSLADSLQLEKEVVRVWFWNRRQKEKR | -0.007 ± 0.1 |
| KKRTSIEVSVKGALESHFLKCPKPSAQEITSLADSLQLEKEVVRVWFANRRQKEKR | -0.096 ± 0.1 |
| KKRTSIEVSVKGALESHFLKCPKPSAQEITSLADSLQLEKEVVRVWFMNRRQKEKR | -0.052 ± 0.15 |
| KKRTSIEVSVKGALESHFLKCPKPSAQEITSLADSLQLEKEVVRVWFFNRRQKEKR | 0.078 ± 0.12 |
| KKRTSIEVSVKGALESHFLKCPKPSAQEITSLADSLQLEKEVVRVWFNNRRQKEKR | -0.165 ± 0.19 |
| KKRTSIEVSVKGALESHFLKCPKPSAQEITSLADSLQLEKEVVRVWFENRRQKEKR | 0.149 ± 0.15 |
| KKRTSIEVSVKGALESHFLKCPKPSAQEITSLADSLQLEKEVVRVWFHNRRQKEKR | -0.118 ± 0.19 |
| KKRTSIEVSVKGALESHFLKCPKPSAQEITSLADSLQLEKEVVRVWFRNRRQKEKR | -0.217 ± 0.091 |
| KKRTSIEVSVKGALESHFLKCPKPSAQEITSLADSLQLEKEVVRVWFLNRRQKEKR | -0.059 ± 0.092 |
| KKRTSIEVSVKGALESHFLKCPKPSAQEITSLADSLQLEKEVVRVWFYNRRQKEKR | 0.096 ± 0.12 |
| KKRTSIEVSVKGALESHFLKCPKPSAQEITSLADSLQLEKEVVRVWFKNRRQKEKR | 0.101 ± 0.16 |
| KKRTSIEVSVKGALESHFLKCPKPSAQEITSLADSLQLEKEVVRVWFQNRRQKEKR | 0.141 ± 0.15 |
| KKRTSIEVSVKGALESHFLKCPKPSAQEITSLADSLQLEKEVVRVWFTNRRQKEKR | -0.105 ± 0.14 |
| KKRTSIEVSVKGALESHFLKCPKPSAQEITSLADSLQLEKEVVRVWFVNRRQKEKR | -0.015 ± 0.084 |
| KKRTSIEVSVKGALESHFLKCPKPSAQEITSLADSLQLEKEVVRIWFCNRRQKEKR | 0.01 ± 0.12 |
| KKRTSIEVSVKGALESHFLKCPKPSAQEITSLADSLQLEKEVVRNWFCNRRQKEKR | -0.006 ± 0.11 |
| KKRTSIEVSVKGALESHFLKCPKPSAQEITSLADSLQLEKEVVRYWFCNRRQKEKR | -0.152 ± 0.11 |
| KKRTSIEVSVKGALESHFLKCPKPSAQEITSLADSLQLEKEVVRSWFCNRRQKEKR | 0.097 ± 0.076 |
| KKRTSIEVSVKGALESHFLKCPKPSAQEITSLADSLQLEKEVVRTWFCNRRQKEKR | 0.001 ± 0.088 |
| KKRTSIEVSVKGALESHFLKCPKPSAQEITSLADSLQLEKEVVRGWFCNRRQKEKR | -0.048 ± 0.092 |
| KKRTSIEVSVKGALESHFLKCPKPSAQEITSLADSLQLEKEVVRKWFCNRRQKEKR | -0.057 ± 0.1 |

| Variant | abundance fitness |
| --- | --- |
| KKRTSIEVSVKGALESHFLKCPKPSAQEITSLADSLQLEKEVVRLWFCNRRQKEKR | -0.033 ± 0.084 |
| KKRTSIEVSVKGALESHFLKCPKPSAQEITSLADSLQLEKEVVRWWFCNRRQKEKR | -0.038 ± 0.14 |
| KKRTSIEVSVKGALESHFLKCPKPSAQEITSLADSLQLEKEVVRHWFCNRRQKEKR | 0.089 ± 0.12 |
| KKRTSIEVSVKGALESHFLKCPKPSAQEITSLADSLQLEKEVVRMWFCNRRQKEKR | -0.101 ± 0.18 |
| KKRTSIEVSVKGALESHFLKCPKPSAQEITSLADSLQLEKEVVRQWFCNRRQKEKR | 0.061 ± 0.11 |
| KKRTSIEVSVKGALESHFLKCPKPSAQEITSLADSLQLEKEVVRRWFCNRRQKEKR | -0.293 ± 0.09 |
| KKRTSIEVSVKGALESHFLKCPKPSAQEITSLADSLQLEKEVVRPWFCNRRQKEKR | -0.784 ± 0.13 |
| KKRTSIEVSVKGALESHFLKCPKPSAQEITSLADSLQLEKEVVRVWFCNCRQKEKR | -0.868 ± 0.18 |
| KKRTSIEVSVKGALESHFLKCPKPSAQEITSLADSLQLEKEVVRVWFCNHRQKEKR | -0.583 ± 0.2 |
| KKRTSIEVSVKGALESHFLKCPKPSAQEITSLADSLQLEKEVVRVWFCNARQKEKR | -0.35 ± 0.086 |
| KKRTSIEVSVKGALESHFLKCPKPSAQEITSLADSLQLEKEVVRVWFCNPRQKEKR | -0.982 ± 0.23 |
| KKRTSIEVSVKGALESHFLKCPKPSAQEITSLADSLQLEKEVVRVWFCNFRQKEKR | -1.05 ± 0.31 |
| KKRTSIEVSVKGALESHFLKCPKPSAQEITSLADSLQLEKEVVRVWFCNERQKEKR | -0.398 ± 0.12 |
| KKRTSIEVSVKGALESHFLKCPKPSAQEITSLADSLQLEKEVVRVWFCNMRQKEKR | -0.545 ± 0.16 |
| KKRTSIEVSVKGALESHFLKCPKPSAQEITSLADSLQLEKEVVRVWFCNDRQKEKR | -0.849 ± 0.19 |
| KKRTSIEVSVKGALESHFLKCPKPSAQEITSLADSLQLEKEVVRVWFCNGRQKEKR | -0.735 ± 0.086 |
| KKRTSIEVSVKGALESHFLKCPKPSAQEITSLADSLQLEKEVVRVWFCNQRQKEKR | -0.161 ± 0.16 |
| KKRTSIEVSVKGALESHFLKCPKPSAQEITSLADSLQLEKEVVRVWFCNNRQKEKR | -0.907 ± 0.39 |
| KKRTSIEVSVKGALESHFLKCPKPSAQEITSLADSLQLEKEVVRVWQCNRRQKEKR | -1 ± 0.19 |
| KKRTSIEVSVKGALESHFLKCPKPSAQEITSLADSLQLEKEVVRVWKCNRRQKEKR | -0.961 ± 0.21 |
| KKRTSIEVSVKGALESHFLKCPKPSAQEITSLADSLQLEKEVVRVWMCNRRQKEKR | -0.43 ± 0.12 |
| KKRTSIEVSVKGALESHFLKCPKPSAQEITSLADSLQLEKEVVRVWCCNRRQKEKR | -0.937 ± 0.27 |
| KKRTSIEVSVKGALESHFLKCPKPSAQEITSLADSLQLEKEVVRVWYCNRRQKEKR | -0.328 ± 0.14 |
